1 molecule from article doi:10.1101/2021.01.14.426755 (bioRxiv, 2021) can be followed below.

The assay deals with T1, Tfb2 (yeast (endogenous, purified from yeast), UniProt Q02939 1-513).
T1 sequence: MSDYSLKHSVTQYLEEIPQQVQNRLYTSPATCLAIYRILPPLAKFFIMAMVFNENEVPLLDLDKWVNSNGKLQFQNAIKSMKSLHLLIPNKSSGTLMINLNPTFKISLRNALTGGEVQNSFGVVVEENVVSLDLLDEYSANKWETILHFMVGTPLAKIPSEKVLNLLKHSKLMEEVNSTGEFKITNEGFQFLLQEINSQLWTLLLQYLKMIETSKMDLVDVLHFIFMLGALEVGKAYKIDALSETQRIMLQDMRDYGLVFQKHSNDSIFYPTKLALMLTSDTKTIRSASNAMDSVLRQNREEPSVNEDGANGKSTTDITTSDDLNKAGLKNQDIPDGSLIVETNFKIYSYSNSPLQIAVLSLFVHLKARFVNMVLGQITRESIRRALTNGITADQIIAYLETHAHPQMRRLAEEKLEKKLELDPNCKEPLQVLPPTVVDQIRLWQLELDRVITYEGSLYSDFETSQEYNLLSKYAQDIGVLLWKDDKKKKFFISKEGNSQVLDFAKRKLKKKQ
In words: cryo-EM structure.

B1: Tfb5 (natural protein)
chain: MARARKGALVQCDPSIKALILQIDAKMSDIVLEELDDTHLLVNPSKVEFVKHELNRLLSKNIYNPMDEEENQ
Turning to B1, the binding result is reported as “binds”.
